The supplement of paper PMC7877785
± gives the uncertainty stated by the source.

Assay: self-splicing fitness, log relative to wild type (ln ratio); higher = more splicing; Tetrahymena group I intron in knt gene, E. coli kanamycin selection, DiMSum; sequences stand for … in CUCUCU…GGAGGGAAAAGUUAUCAGGCAUGCACCUGGUAGCUAGUCUUUAAACCAAUAGAUUGCAUCGGUUUAAAAGGCAAGACCGUCAAAUUGCGGGAAAGGGGUCAACAGCCGUUCAGUACCAAGUCUCAGGGGAAACUUUGAGAUGGCCUUGCAAAGGGUAUGGUAAUAAGCUGACGGACAUGGUCCUAACCACGCAGCCAAGUCCUAAGUCAACAGAUCUUCUGUUGAUAUGGAUGCAGUUCACAGACUAAAUGUCGGUCGGGGAAGAUGUAUUCUUCUCAUAAGAUAUAGUCGGACCUCUCCUUAAUGGGAGCUAGCGGAUGAAGUGAUGCAACACUGGAGCCGCUGGGAACUAAUUUGUAUGCGAAAGUAUAUUGAUUAGUUUUGGAGUACUCGUGGUCG
Procedure, shortened: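 Colonies from six replicate transformations of E. coli BL21(DE3) were pooled and amplicon-sequenced on an Illumina HiSeq 2500. The library placed an intron with all eight P1ex-region nucleotides randomised inside the knt kanamycin-resistance gene on pET-22b(+), and cells grew overnight at 37°C or 30°C on LB agar with or without 25 μg/mL kanamycin (plus 100 μg/mL carbenicillin, 50 μM IPTG, 0.2% rhamnose). Fitness is the DiMSum error-weighted combination of wild-type-normalised replicate fold changes, kanamycin versus none.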

Sequence	self-splicing fitness (ln) (30 °C)	self-splicing fitness (ln) (37 °C)
UUUAAGCAAUAUUACGUUAA	-1.68 ± 0.23	-1.38 ± 0.18
CUAAAGCAAUAUUACGAAUA	-2.73 ± 0.23	-1.94 ± 0.24
CGGGAGCAAUAUUACGAUAU	-3.65 ± 0.35	–
GCUAAGCAAUAUUACGUGAG	-0.321 ± 0.06	-0.28 ± 0.071
AAAGAGCAAUAUUACGUUCC	-3.94 ± 0.31	-2.49 ± 0.29
AUCUAGCAAUAUUACGCAUC	-4.16 ± 0.47	-2.81 ± 0.4
CCACAGCAAUAUUACGUCGG	-3.14 ± 0.12	-1.95 ± 0.18
GCAGAGCAAUAUUACGGGGU	-3.34 ± 0.23	-3.16 ± 0.31
CCCCAGCAAUAUUACGGGAC	-3.88 ± 0.18	-2.12 ± 0.14
GGUUAGCAAUAUUACGCUUA	-1.58 ± 0.13	-0.641 ± 0.12
UGCGAGCAAUAUUACGGGCC	-2.91 ± 0.28	-1.54 ± 0.21
AGGAAGCAAUAUUACGGGCA	-1.55 ± 0.21	-1.13 ± 0.23
CGUAAGCAAUAUUACGAGGG	-2.74 ± 0.19	-1.86 ± 0.24
UAUAAGCAAUAUUACGGUGA	-1 ± 0.13	-0.726 ± 0.13
GCGUAGCAAUAUUACGUAAU	–	-0.693 ± 0.32
AGUCAGCAAUAUUACGCCAC	-3.68 ± 0.18	-3.11 ± 0.19
UGCCAGCAAUAUUACGUUCC	-1.31 ± 0.31	-2.25 ± 0.3
AUGUAGCAAUAUUACGGUAA	-2.15 ± 0.23	-1.36 ± 0.17
GCGGAGCAAUAUUACGAGAU	-2.21 ± 0.27	-1.94 ± 0.4
AGUGAGCAAUAUUACGUGUG	-2.69 ± 0.21	–
CCCCAGCAAUAUUACGAUAC	-3.82 ± 0.27	-2.85 ± 0.28
GUGCAGCAAUAUUACGUUGA	-1.49 ± 0.13	-0.806 ± 0.14

Sequence	self-splicing fitness (ln) (30 °C)	self-splicing fitness (ln) (37 °C)
UUUCAGCAAUAUUACGUGUC	-3.73 ± 0.18	-2.04 ± 0.15
CCUAAGCAAUAUUACGUCAU	-4.09 ± 0.22	-2.83 ± 0.22
GUGAAGCAAUAUUACGAGCG	-0.702 ± 0.087	0.396 ± 0.12
ACCUAGCAAUAUUACGGACA	-0.384 ± 0.075	-0.189 ± 0.08
GAUCAGCAAUAUUACGAUGG	-1.22 ± 0.096	0.121 ± 0.14
CCUGAGCAAUAUUACGCCCU	–	-1.73 ± 0.33
ACGCAGCAAUAUUACGUCCC	–	-0.268 ± 0.48
GUAGAGCAAUAUUACGAUUA	-0.625 ± 0.1	-0.396 ± 0.14
CAUGAGCAAUAUUACGGCUG	-0.641 ± 0.073	-0.532 ± 0.12
CGUUAGCAAUAUUACGCGUG	-1.3 ± 0.099	-1.36 ± 0.089
GACGAGCAAUAUUACGUAGG	-3.47 ± 0.25	-2.12 ± 0.22
GAAUAGCAAUAUUACGUGUU	-2.18 ± 0.12	-0.873 ± 0.1
ACAAAGCAAUAUUACGAAAA	-2.93 ± 0.25	-2.42 ± 0.27
UAAUAGCAAUAUUACGGACC	–	-1.42 ± 0.29
GGGCAGCAAUAUUACGGUUG	-1.94 ± 0.12	-1.11 ± 0.13
AUGCAGCAAUAUUACGGAAA	-1.86 ± 0.23	-2.17 ± 0.28
ACCUAGCAAUAUUACGGUGU	-2.97 ± 0.1	-1.93 ± 0.12
UGGCAGCAAUAUUACGUGGG	-2.8 ± 0.1	-2.02 ± 0.11
CGGCAGCAAUAUUACGUCGU	-3.21 ± 0.2	-2.64 ± 0.21
CAGGAGCAAUAUUACGGUAG	-0.725 ± 0.12	-0.902 ± 0.13
UUCAAGCAAUAUUACGCGAU	-2.11 ± 0.16	-3 ± 0.34
AAGAAGCAAUAUUACGGCUU	-2.42 ± 0.14	-3.23 ± 0.24
